Measured values reported in patent US20160280796A1.

How the values were obtained:
[1] = target: human CD3 (CD3ε of the TCR/CD3 complex) on purified human CD3 T cells (human) (UniProt P07766); assay: flow cytometry on purified human CD3 T cells, antibody at 1 µg/ml
[2] = target: human CD3 (CD3ε of the TCR/CD3 complex) on purified human CD3 T cells (human) (UniProt P07766); assay: flow cytometry on CD3+ Jurkat cells, 10 µg/mL, FL4: anti-His mouse mAb + APC anti mIgG, RED2-HLin (right panel); unstained Jurkat 7.61
[3] = target: human CD3 (CD3ε of the TCR/CD3 complex) on purified human CD3 T cells (human) (UniProt P07766); assay: flow cytometry on purified human CD3 T cells, antibody at 10 µg/ml
[4] = target: human CD3 (CD3ε of the TCR/CD3 complex) on purified human CD3 T cells (human) (UniProt P07766); assay: flow cytometry on purified human CD3 T cells, antibody at 0.1 µg/ml
[5] = target: human CD3 (CD3ε of the TCR/CD3 complex) on purified human CD3 T cells (human) (UniProt P07766); assay: flow cytometry on CD3+ Jurkat cells, 10 µg/mL, FL1: anti-His FITC, GRN-HLin (left panel). DOUBTFUL: the printed value disagrees with the histogram, which lies right of ESK1+L2K, and equals the second row of the left table of FIGURE 8

B1: control bi-specific antibody (irrelevant human IgG1 antibody ET901 as scFv replacing ESK1 scFv, with anti-CD3 scFv) (bispecific antibody, part only; not given: ET901 control scFv, part only)
chain, part: DVQLVQSGAEVKKPGASVKVSCKASGYTFTRYTMHWVRQAPGQGLEWIGYINPSRGYTNYADSVKGRFTITTDKSTSTAYMELSSLRSEDTATYYCARYYDDHYCLDYWGQGTTVTVSSGEGTSTGSGGSGGSGGADDIVLTQSPATLSLSPGERATLSCRASQSVSYMNWYQQKPGKAPKRWIYDTSKVASGVPARFSGSGSGTDYSLTINSLEAEDAATYYCQQWSSNPLTFGGGTKVEIK
- Median fluorescence intensity (MFI) [1]: 153 MFI
- Geom. Mean [2]: 94.3
- Median fluorescence intensity (MFI) [3]: 188 MFI
- Median fluorescence intensity (MFI) [4]: 26.2 MFI
- Geom. Mean [5]: 47.9
